Test: yeast display, Sf9 membrane polyspecificity reagent, FACS + sequencing; frameworks hold sequencing errors
How it was run: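 Synthetic nanobody libraries on Saccharomyces cerevisiae BJ5465 were galactose-induced for 36–48 hours, stained 1 hour at 4 °C with 10% biotinylated, detergent-solubilized Sf9 membrane reagent and enriched on streptavidin microbeads. FACS then separated cells into low and high (top ~1%) gates by anti-HA (expression) and streptavidin (reagent binding) fluorescence. Genes were colony-PCR amplified, MiSeq 2 × 250 sequenced and CDR-length filtered. A clone's polyreactivity label is that of its gate of origin.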

Question: For “QVQLVDSWGGLVQAGGSLRLSCAASGRTSRYAMGWYRQAPGKERELVAAITSSGGRTYYADSVKGRFTISRDNAKNTVYLQMNSLKPEDTAVYYCAAGYLLWRTWDYAAGHNYWGQGTQVTVSS”, which “polyreactivity (PSR sort gate)” value is on record?
Answer: high polyreactivity

Question: Which “polyreactivity (PSR sort gate)” value does the source give for “QVQLVDTGGGLVQAGGSLRLICAASGLTFSYNAMGWYRQAPGKERELVAAITVSGGRTYYADSVKGRFTISRDNAKNTVYLQMNSLKAEDTAVYYCNADYDEGYYGYLRYDYDYWGQGTQVTVSS” here?
Answer: high polyreactivity

Question: For “QVQLVDTGGGLVQAGGSLRLSCAASGFTFRWYAMGWYRQAPGKERELVAAISWRGGSTYYADSVKGRFTISRDNAKTTVYLQMNSLKPEDTAVYYCAALRYWISLSSYEYWGQGTQVTVSS”, which “polyreactivity (PSR sort gate)” value is on record?
Answer: high polyreactivity

Question: Which “polyreactivity (PSR sort gate)” value does the source give for “QVQLVDTGGGLVQAGGSLRLSCAASGSIFHNNSRGWYRQATGKERELVAAIRRSGGSTSYADSVKGRFTISLDNAKNTVYLQMNSLKPEDTAVYYCNKRFVRFSPEYGYWGQGNQVTVSS” here?
Answer: low polyreactivity

Question: Which “polyreactivity (PSR sort gate)” value does the source give for “QVQLVDTGGGLVQAGGSLRLSCSASGSIFEGYAMGWYRKAPGKERELVARITSDDDSTYYADSVKGRFTISRDKEKNTVYLQMNSLKAEDTAVYYCNADYYWTSLAMDSWGQGTQVTVSS” here?
Answer: low polyreactivity

Question: Which “polyreactivity (PSR sort gate)” value does the source give for “QVQLVEAGGGLVKAGGSLRLSCAASGYIFRFYALGWYRQAPGKERELVAAISRSGSRTYYADSVKGRFTISRDNAKNTVYLQMNSLKPEDTAVYYCAAVTRGLRFDYWGQGTQVTVSS” here?
Answer: high polyreactivity

Question: With “QVQLVEAGGGLVQAGGSLRLCCAASGSTFVHYAMGWYRQAPGKERELVAAITTSGTGTFYADSVKGRFTISRENAKNNVYLQMNSLKPEETAVNYCAADIYPVWIYLLYVYWGQGTQVTVSS” as the sequence, how does the “polyreactivity (PSR sort gate)” value read?
Answer: low polyreactivity

Question: With “QVQLVEAGGGLVQAGGSLRLSCAACGSIFISYAMGWYRQAPGKERELVAAISSGGSTNYADSVKGRFTISRDNAKNTVYLQMNSLTPEDTAVYYCAADGWLWSFTGDGWWFDYWGQGTQVTVSS” as the sequence, how does the “polyreactivity (PSR sort gate)” value read?
Answer: low polyreactivity

Question: For “QVQLVEAGGGLVQAGGSLRLSCAASGITYSKYANGWYIQAPWKERELVAAISQRGGSTYYADSVKGRFTISRDNAKNTVYLQMNSLKPEDTAVYYCNAEFYWSIIAYEYWGQGTQVTVSS”, which “polyreactivity (PSR sort gate)” value is on record?
Answer: high polyreactivity

Question: Which “polyreactivity (PSR sort gate)” value does the source give for “QVQLVEAGGGLVQAGGSLRLSCAASGLIFWAYAMGWYRQAPGKERELVAAINWRGGSTYYADSVKGRFTISRDNAKNTVDLQMNSLKPEDTAVYYCADDSYYDEYDYLGQGTQVTVSS” here?
Answer: low polyreactivity

Question: Which “polyreactivity (PSR sort gate)” value does the source give for “QVQLVEAGGGLVQAGGSLRLSCAASGRIFGRYVMGWYRQAPGKERELVASISTRRGRTYYADSVKGRFTSSRDNAKNTVYLQMNSLKPEDTAVYYCATAYSSHYGIHRRYEYWGQGTQVTVSS” here?
Answer: high polyreactivity

Question: Which “polyreactivity (PSR sort gate)” value does the source give for “QVQLVEAGGGLVQAGGSLRLSCAASGRTFRWYAMGWYRQAPGKERELVAAITIGGASTYYADSVKGRFTISRDNAKNTVYLQMNSLQPEYTAVNYCNAVFVGNDYWGQGTLVTVSS” here?
Answer: low polyreactivity

Question: For “QVQLVEAGGGLVQAGGSLRLSCAASGSIFGSYAMGWYRQAPGKERELVAAISGSGGRTYYADSVKGRFTISRDNAKISVYLQMNSLKPDDTAVYYCAAAYPRVTYNYGYYWGQGTQVTVSS”, which “polyreactivity (PSR sort gate)” value is on record?
Answer: high polyreactivity

Question: Which “polyreactivity (PSR sort gate)” value does the source give for “QVQLVEAGGGLVQAGGSLRLSCAASGSIFKSYAMGRYRQAPGKEREFVASITKSGGTTYYADSVKGRFTISRDHAKNTVYLQMNSLKPEDTAVYYCAADWYRSSWTYNYLGQGTQVTVSS” here?
Answer: low polyreactivity

Question: Which “polyreactivity (PSR sort gate)” value does the source give for “QVQLVEAGGGLVQAGGSLRLSCAASGSTFRRYAMGWYRQAPGKERVLVAAITTRGGSTYYADSVKGRFTISRDNAKNTVYLQMNSLKPEDTAVYYCARDYSTYLRTAGDYWGQGTQVTVSS” here?
Answer: low polyreactivity

Question: For “QVQLVEAGGGLVQAGGSLRLSCGASGFTFVYYAMGWYRQAPGKERELVAAISRSGGSTYYADSVKGRFTISRDNAKNTVYVQMNSLKPEDTAVYYCAARKNYGSRLSYEYWGQGTQVTVSS”, which “polyreactivity (PSR sort gate)” value is on record?
Answer: high polyreactivity

Question: Which “polyreactivity (PSR sort gate)” value does the source give for “QVQLVEARGGLVQAGGSLRLSCAASGSILRYTMGWYRPAPGKERELVAAITRSGTSTYYADSVKGRFTISRDNAKNTVYLQMNSLKPEDTAVYYCAAREKYASHEYDYWGQGTQVTVSS” here?
Answer: high polyreactivity

Question: For “QVQLVEPGGGIVQAGGSLRLSCAASGYIFYNYAMGWYRQAPGKERELVAAITSGGSTYYADSVKGRFTISRDNAKNTVYFQMNSLKPEDTAVYYCAAYLFPAYSRISNDYWGQGTQVTVSS”, which “polyreactivity (PSR sort gate)” value is on record?
Answer: high polyreactivity

Question: Which “polyreactivity (PSR sort gate)” value does the source give for “QVQLVESAAGLFQAGGRLRLSCAASGRICGFYAKGWYTQAPGKQRDLVAAITVSGSSTRYADSVKGRFTISRDNAKNTVYLQMNSLKPEDTAVYYCAARIRAKYSYGYWGQVTQVTVSS” here?
Answer: high polyreactivity

Question: Which “polyreactivity (PSR sort gate)” value does the source give for “QVQLVESAAGLVQAGGSLRISCAASGYTFWLYAMGWYRQAPGKEREFVAAISTSGGSTYADSVKGRFTISRDNAKNTVYLQMNSLKPEDTAVYYCNAGYLLYYDYHLFYWGQGTQVTVSS” here?
Answer: low polyreactivity

Question: Which “polyreactivity (PSR sort gate)” value does the source give for “QVQLVESAAGLVQAGGSLRLSCAASGFTFSFYTMGWYRQAPAKDRELVAAISSGGTPYYADSVKGRFTISRDNAKNTVYLQMNSLKPEDTAVYYCAAYGRYASWIEFYSNYDYWGQGTQVTVSS” here?
Answer: low polyreactivity

Question: Which “polyreactivity (PSR sort gate)” value does the source give for “QVQLVESAAGLVQAGGSLRLSCAASGSIFSYYAMGWSRQAPGKERELVAAITGRGGNTYYADSVKGRFTISRDNAKNTVYLQMNSLKPEDTAVDYCAKDYFGWYDVETPYDYWGQGTQVTVSS” here?
Answer: low polyreactivity

Question: For “QVQLVESAAGLVQAGGSLRLSCPASGITFYYYAKGWYRQEPGKESELVAAISGGGDSTYYADSVKGRFTISRDNAKNTVYLQMNSLKPEDTAVYYCAAGQDYWVPDDSLFYYWGQGTQVTVSS”, which “polyreactivity (PSR sort gate)” value is on record?
Answer: low polyreactivity

Question: With “QVQLVESAAGLVQAGGSLRLTCDGSGTTFPGYAMGWYRPEPGNERELVAAGGSTYYADSVKGRFTISRDNAKNTVYFQMNCLKPVETAGYYCAASWGSFQKGTYYYWGQGTQVTVSS” as the sequence, how does the “polyreactivity (PSR sort gate)” value read?
Answer: low polyreactivity

Question: For “QVQLVESAAGLVQAVGSLRLSCAPSGITFYDYTMGWYRQAPGKERELVAAITSSGVSTYYADSVKGRFTISRDNAKNTVYLQMNSLKPEDTAVYYCATDAWSVYSYLAFTYDYWGQGTQVTVSS”, which “polyreactivity (PSR sort gate)” value is on record?
Answer: low polyreactivity

Question: Which “polyreactivity (PSR sort gate)” value does the source give for “QVQLVESAGALVQAGGRLRLSCAASGRTFRKYAMGWYRQAPGTERELVAAISWSGGSTYYANSVKGRFTISRDNAKNTVYLQMNSLKPEDTAVYYWAAVPVHTGSLYWGFTTGYDYWGQGTQVTVSS” here?
Answer: low polyreactivity

Question: For “QVQLVESAGGIVQAGGSLRLSCAASGFTFTGYAMGWYRQAPGKEREMVAAINARGTSTYYADSVKGRFTISRDNAKNTVYLQMNSLKPEDTAVYYCNREGRSVSGYYYYWGQGTQVTVSS”, which “polyreactivity (PSR sort gate)” value is on record?
Answer: high polyreactivity

Question: For “QVQLVESAGGIVQAGGSLRLSCAASGSTFGVYAMGLYRQAPGKERELVASISSGDSTTYADSVKGRFTISRDNAKNTVYFQMNSLKPDVTAVYYCNAVYYTGYYWGHGTQVTVSS”, which “polyreactivity (PSR sort gate)” value is on record?
Answer: low polyreactivity

Question: For “QVQLVESAGGLVQAGGRLRLSCAASGFIFYRYAMGWYRQAPGKERELVAAISRNGGSTYYADSVKGRFTISRDNAKNTVYLQRNILKPEDTAVYYCNVDYRLVRIRVDYEYWGQGTQVTVSS”, which “polyreactivity (PSR sort gate)” value is on record?
Answer: high polyreactivity

Question: With “QVQLVESAGGLVQAGGRLRLSCAASGFTFRYYAMGWYRQAPGKERELVATITPGGSTNYADSVKGRFTISRDNAKNTVYLEMNSLKPEDTAVYYCAASLYRVIAFGYWGQGTQVTVSS” as the sequence, how does the “polyreactivity (PSR sort gate)” value read?
Answer: high polyreactivity

— the nanobody polyreactivity screen of Harvey et al. (2022)
